Reference: patent US10526416B2, “Anti-HER3 antibodies and uses of same” (Yeda Research and Development Co. Ltd., priority 2014, dated 2020)

B1: NG83: anti-HER3 mAb; light chain CDRs SEQ ID NOs: 7-9, heavy chain CDRs 10-12 (antibody, V domains shown)
VH: QIQLVQSGPELKKRGETVKISCKASGYTFTNYGMNWVRQAPGKGLKCMGWINTYAGEPTYADDFKGRFAFSLDSSASTAYLQINNLKNEDMATYFCARGGITGAMDYWGQGTSVTVSS
VL: DVVMTQKTSSLSTSLGDRVTISCRASQDIRNYLNWYQQKPDGTVKLLIYYTSRLHSGVPSRFSGSGSGTDYSLTISDLEQEDIATYFCQQGNTLPWTFGGGTKLAIK
modifications: VH chain of NG83 polypeptide; VL chain of NG83 polypeptide
B2: XC252: anti-HER3 mAb generated as described in Chen X, et al. (1996); heavy and light chain SEQ ID NOs: 49 and 53 (antibody, V domains shown)
VH: EVQLQQSGAELVRPGVSVKISCKGSGYTFTDYAMHWVKQSHAKSLEWIGVISTYYGDPRDNQKFKGKATMTVDKSSSTAYMELARLTSEDSAIYYCARGDYDWYAIDYWGQGTSVTVSS
VL: DVVMTQTPLSLPVSLGDQASISCRSSQSIVHSDGNTYLEWYLQKPGQSPKLLIYKVSNRFSGVPDRFSGSGSGTDFTLKISRVEAEDLGVYYCFQGSHVPPTFGGGTKLEIK
modifications: VH chain of XC252 polypeptide; VL chain of XC252 polypeptide

Tests used:
BXPC3-luc cells = experiment: Antibody-dependent cellular cytotoxicity (ADCC) luciferase assay with human PBMC; assay type: cell-based; settings: 24 h
Experimental: (FIGS. 5A and 5B) The mAb ability to degrade HER3 after cell treatment was determined as follows. N87 cells were treated for 3 h at 37° C. with 10 μg/ml mAb. After cell lysis and protein extraction, the samples were subjected to immunoblotting with the indicated Ab. (FIG. 5C) The experiment shown in FIG. 5A was performed on 6 other cancer cell lines. (FIG. 5D) The mAb capacity to induce ADCC is reported. BXPC3-luc cells were incubated with the indicated mAbs and secondarily with human PBMC cells for 24 h. Cell killing was detected by measuring the luminescence after final addition of luciferine. *** […], ANOVA and post hoc tests.
ADCC was evaluated with a luciferase-activity assay. Using 96-well white plates, BXPC3-luc (4,000 cells/well) were pre-incubated for 30 min with the indicated antibodies. Ficoll-purified human peripheral blood mononuclear cells (PBMCs) from buffy coat were then added at a 10:1 effector to target cell ratio (E:T). […] Bioluminescence was determined using the Wallac Trilux 1450 Microbeta liquid scintillation and luminescence counter (Perkin-Elmer, MA). Percentage of cellular cytotoxicity was calculated using the following formula: percentage of specific lysis=[bioluminescence in experimental point−basal bioluminescence]/[bioluminescence in total lysis−basal bioluminescence]×100. […]

[1] = system: phosphorylation of HER3, AKT and ERK; experiment: NRG-induced phosphorylation of HER3, AKT and ERK in N87 cells (immunoblotting); assay type: cell-based, human; settings: mAb 10 μg/ml 20 min, then NRG 20 ng/ml
Experimental: (FIG. 9A) The indicated mAbs were checked for their capacity to compete with fluorescent dye labeled NRG. […] After washes, the labeled-NRG was added and incubated for 30 min at 4° C. Fluorescence intensity at 670 nm was determined following 3 final washes. (FIG. 9B) The ability of the mAbs to avoid NRG-induced phosphorylation of HER3, AKT and ERK, was studied with N87 cells. After 20 min treatment with the indicated mAbs (10 μg/ml) at 37° C., NRG (20 ng/ml) was added to the cells for 10 min. The cells were then lysed, and equal quantities of protein lysates were run on 9% bisacrylamide gel before immunoblotting with the indicated primary antibodies. (FIG. 9C) The capacity of mAb NG33 to avoid NRG-induced migration was checked with OVCAR-5 cells and the quantification reported in a histogram. […] Signals of triplicates were quantified. **** […] (ANOVA and post hoc tests).
FIGS. 12A-D show a combination of two mAbs directed to two different epitopes of HER3. […] After ah incubation, the plate was washed 4 times with KREBS buffer, and the fluorescence intensity at 610 nm was measured using a fluorescence microplate reader. […] (FIG. 12D) The combination's capacity to modulate NRG-induced phosphorylation of HER3, AKT and ERK was evaluated using N87 cells. […] The cells were then lysed, and equal quantities of lysate protein were electrophoresed before immunoblotting, as indicated. […]

Molecule	induction of ADCC (BXPC3-luc cells)	effect on NRG-induced HER3 phosphorylation and AKT and ERK activation [1]
B1	strongly or moderately induced ADCC	
B2		partly decrease the phosphorylation level of HER3
